Data on two substances can be found in publication PMC4161306, “Regulation of Arabidopsis Flowering by the Histone Mark Readers MRG1/2 via Interaction with CONSTANS to Modulate FT Expression” (PLoS Genetics, 2014).

This test addresses MRG2 chromodomain (residues 41-123) (Arabidopsis thaliana) (UniProt Q4V3E2). The test can be described thus: ITC; 25 C, MicroCal iTC200; 50 mM Tris pH 8.0, 100 mM NaCl; 0.2-0.4 mM protein in the cell, 2-4 mM peptide injected in 2 ul aliquots (20 injections); one-site model.

One may read the Kd as the equilibrium constant for the complex coming apart. Lower therefore signals tighter binding.

Sequence of MRG2 chromodomain (residues 41-123) (Arabidopsis thaliana) (Q4V3E2 41-123): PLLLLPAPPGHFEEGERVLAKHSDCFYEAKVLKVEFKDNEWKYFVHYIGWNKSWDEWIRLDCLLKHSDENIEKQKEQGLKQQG

On to H3K36me3 peptide (residues 31-41), for which the Kd came to 690 µM. H3K4me3 peptide (residues 1-9) registered a Kd of 800 µM.
